Data taken from publication PMC11554844, “BEACH domain proteins function as cargo-sorting adaptors in secretory and endocytic pathways” (The Journal of Cell Biology, 2024).

B1: 3xFlag-EGFP-ALFY [human] / GST-CTLA4 (201–215) [human] (parent complex)
chain 1: MNMVKRIMGRPRQEECSPQDNALGLMHLRRLFTELCHPPRHMTQKEQEEKLYMMLPVFNRVFGNAPPNTMTEKFSDLLQFTTQVSRLMVTEIRRRASNKSTEAASRAIVQFLEINQSEEASRGWMLLTTINLLASSGQKTVDCMTTMSVPSTLVKCLYLFFDLPHVPEAVGGAQNELPLAERRGLLQKVFVQILVKLCSFVSPAEELAQKDDLQLLFSAITSWCPPYNLPWRKSAGEVLMTISRHGLSVNVVKYIHEKECLSTCVQNMQQSDDLSPLEIVEMFAGLSCFLKDSSDVSQTLLDDFRIWQGYNFLCDLLLRLEQAKEAESKDALKDLVNLITSLTTYGVSELKPAGITTGAPFLLPGFAVPQPAGKGHSVRNVQAFAVLQNAFLKAKTSFLAQIILDAITNIYMADNANYFILESQHTLSQFAEKISKLPEVQNKYFEMLEFVVFSLNYIPCKELISVSILLKSSSSYHCSIIAMKTLLKFTRHDYIFKDVFREVGLLEVMVNLLHKYAALLKDPTQALNEQGDSRNNSSVEDQKHLALLVMETLTVLLQGSNTNAGIFREFGGARCAHNIVKYPQCRQHALMTIQQLVLSPNGDDDMGTLLGLMHSAPPTELQLKTDILRALLSVLRESHRSRTVFRKVGGFVYITSLLVAMERSLSCPPKNGWEKVNQNQVFELLHTVFCTLTAAMRYEPANSHFFKTEIQYEKLADAVRFLGCFSDLRKISAMNVFPSNTQPFQRLLEEDVISIESVSPTLRHCSKLFIYLYKVATDSFDSRAEQIPPCLTSESSLPSPWGTPALSRKRHAYHSVSTPPVYPPKNVADLKLHVTTSSLQSSDAVIIHPGAMLAMLDLLASVGSVTQPEHALDLQLAVANILQSLVHTERNQQVMCEAGLHARLLQRCSAALADEDHSLHPPLQRMFERLASQALEPMVLREFLRLASPLNCGAWDKKLLKQYRVHKPSSLSYEPEMRSSMITSLEGLGTDNVFSLHEDNHYRISKSLVKSAEGSTVPLTRVKCLVSMTTPHDIRLHGSSVTPAFVEFDTSLEGFGCLFLPSLAPHNAPTNNTVTTGLIDGAVVSGIGSGERFFPPPSGLSYSSWFCIEHFSSPPNNHPVRLLTVVRRANSSEQHYVCLAIVLSAKDRSLIVSTKEELLQNYVDDFSEESSFYEILPCCARFRCGELIIEGQWHHLVLVMSKGMLKNSTAALYIDGQLVNTVKLHYVHSTPGGSGSANPPVVSTVYAYIGTPPAQRQIASLVWRLGPTHFLEEVLPSSNVTTIYELGPNYVGSFQAVCMPCKDAKSEGVVPSPVSLVPEEKVSFGLYALSVSSLTVARIRKVYNKLDSKAIAKQLGISSHENATPVKLIHNSAGHLNGSARTIGAALIGYLGVRTFVPKPVATTLQYVGGAAAILGLVAMASDVEGLYAAVKALVCVVKSNPLASKEMERIKGYQLLAMLLKKKRSLLNSHILHLTFSLVGTVDSGHETSIIPNSTAFQDLLCDFEVWLHAPYELHLSLFEHFIELLTESSEASKNAKLMREFQLIPKLLLTLRDMSLSQPTIAAISNVLSFLLQGFPSSNDLLRFGQFISSTLPTFAVCEKFVVMEINNEEKLDTGTEEEFGGLVSANLILLRNRLLDILLKLIYTSKEKTSINLQACEELVKTLGFDWIMMFMEEHLHSTTVTAAMRILVVLLSNQSILIKFKEGLSGGGWLEQTDSVLTNKIGTVLGFNVGRSAGGRSTVREINRDACHFPGFPVLQSFLPKHTNVPALYFLLMALFLQQPVSELPENLQVSVPVISCRSKQGCQFDLDSIWTFIFGVPASSGTVVSSIHNVCTEAVFLLLGMLRSMLTSPWQSEEEGSWLREYPVTLMQFFRYLYHNVPDLASMWMSPDFLCALAATVFPFNIRPYSEMVTDLDDEVGSPAEEFKAFAADTGMNRSQSEYCNVGTKTYLTNHPAKKFVFDFMRVLIIDNLCLTPASKQTPLIDLLLEASPERSTRTQQKEFQTYILDSVMDHLLAADVLLGEDASLPITSGGSYQVLVNNVFYFTQRVVDKLWQGMFNKESKLLIDFIIQLIAQSKRRSQGLSLDAVYHCLNRTILYQFSRAHKTVPQQVALLDSLRVLTVNRNLILGPGNHDQEFISCLAHCLINLHVGSNVDGFGLEAEARMTTWHIMIPSDIEPDGSYSQDISEGRQLLIKAVNRVWTELIHSKKQVLEELFKVTLPVNERGHVDIATARPLIEEAALKCWQNHLAHEKKCISRGEALAPTTQSKLSRVSSGFGLSKLTGSRRNRKESGLNKHSLSTQEISQWMFTHIAVVRDLVDTQYKEYQERQQNALKYVTEEWCQIECELLRERGLWGPPIGSHLDKWMLEMTEGPCRMRKKMVRNDMFYNHYPYVPETEQETNVASEIPSKQPETPDDIPQKKPARYRRAVSYDSKEYYMRLASGNPAIVQDAIVESSEGEAAQQEPEHGEDTIAKVKGLVKPPLKRSRSAPDGGDEENQEQLQDQIAEGSSIEEEEKTDNATLLRLLEEGEKIQHMYRCARVQGLDTSEGLLLFGKEHFYVIDGFTMTATREIRDIETLPPNMHEPIIPRGARQGPSQLKRTCSIFAYEDIKEVHKRRYLLQPIAVEVFSGDGRNYLLAFQKGIRNKVYQRFLAVVPSLTDSSESVSGQRPNTSVEQGSGLLSTLVGEKSVTQRWERGEISNFQYLMHLNTLAGRSYNDLMQYPVFPWILADYDSEEVDLTNPKTFRNLAKPMGAQTDERLAQYKKRYKDWEDPNGETPAYHYGTHYSSAMIVASYLVRMEPFTQIFLRLQGGHFDLADRMFHSVREAWYSASKHNMADVKELIPEFFYLPEFLFNSNNFDLGCKQNGTKLGDVILPPWAKGDPREFIRVHREALECDYVSAHLHEWIDLIFGYKQQGPAAVEAVNVFHHLFYEGQVDIYNINDPLKETATIGFINNFGQIPKQLFKKPHPPKRVRSRLNGDNAGISVLPGSTSDKIFFHHLDNLRPSLTPVKELKEPVGQIVCTDKGILAVEQNKVLIPPTWNKTFAWGYADLSCRLGTYESDKAMTVYECLSEWGQILCAICPNPKLVITGGTSTVVCVWEMGTSKEKAKTVTLKQALLGHTDTVTCATASLAYHIIVSGSRDRTCIIWDLNKLSFLTQLRGHRAPVSALCINELTGDIVSCAGTYIHVWSINGNPIVSVNTFTGRSQQIICCCMSEMNEWDTQNVIVTGHSDGVVRFWRMEFLQVPETPAPEPAEVLEMQEDCPEAQIGQEAQDEDSSDSEADEQSISQDPKDTPSQPSSTSHRPRAASCRATAAWCTDSGSDDSRRWSDQLSLDEKDGFIFVNYSEGQTRAHLQGPLSHPHPNPIEVRNYSRLKPGYRWERQLVFRSKLTMHTAFDRKDNAHPAEVTALGISKDHSRILVGDSRGRVFSWSVSDQPGRSAADHWVKDEGGDSCSGCSVRFSLTERRHHCRNCGQLFCQKCSRFQSEIKRLKISSPVRVCQNCYYNLQHERGSEDGPRNC
chain 2: YVKMPPTEPECEKQF

Variants of: B1
Experiment: GST pulldown, anti-flag western blot quantification; HeLa 3xFlag-EGFP-ALFY cell lysate; three independent experiments; read off a plot

| Variant | response |
| --- | --- |
| chain 2 YVKMPPTEPECEAQF [chain 2 K13A] | ~0.5 |
| chain 2 YAKMPPTEPECEKQF [chain 2 V2A] | ~1.7 |
| chain 2 YVAMPPTEPECEKQF [chain 2 K3A] | ~0.55 |
| chain 2 YVKMPPTEPECEKAF [chain 2 Q14A] | ~0.68 |
| chain 2 YVKMPPTEPECEKQA [chain 2 F15A] | ~1.1 |
| chain 2 YVKMPPTEAECEKQF [chain 2 P9A] | ~0.77 |
| chain 2 YVKAPPTEPECEKQF [chain 2 M4A] | ~1.6 |
| chain 2 YVKMPPTEPACEKQF [chain 2 E10A] | ~1.2 |
| chain 2 YVKMPPAEPECEKQF [chain 2 T7A] | ~1.5 |
| chain 2 YVKMPPTEPECAKQF [chain 2 E12A] | ~1.2 |
| chain 2 YVKMPPTEPEAEKQF [chain 2 C11A] | ~0.78 |
| chain 2 YVKMAPTEPECEKQF [chain 2 P5A] | ~0.87 |
| chain 2 AVKMPPTEPECEKQF [chain 2 Y1A] | ~1.4 |
| chain 2 YVKMPPTAPECEKQF [chain 2 E8A] | ~1.4 |
| chain 2 YVKMPATEPECEKQF [chain 2 P6A] | ~0.67 |
